Legend:
[1] = biological target: T1, FcγRIIa H (FcγRIIa type H, His at position 131), extracellular domain with C-terminal His tag (human, UniProt P12318 34-217); experiment: SPR Biacore; He/Con_2aH divided by He/Con_2b (reference: FcgRIIb)
T1 construct: extracellular domain; Expressed in FreeStyle293 cells; analyte in the Biacore assay; also called FcgRIIa H; 2aH; not shown: His tag at the C terminus
T1 sequence (looked up): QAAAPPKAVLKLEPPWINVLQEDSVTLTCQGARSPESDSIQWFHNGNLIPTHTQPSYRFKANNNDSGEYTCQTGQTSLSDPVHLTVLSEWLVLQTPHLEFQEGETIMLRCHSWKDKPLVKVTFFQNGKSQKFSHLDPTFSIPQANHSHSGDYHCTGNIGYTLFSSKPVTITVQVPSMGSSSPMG

[2] = biological target: T1, FcγRIIa H (FcγRIIa type H, His at …); experiment: SPR Biacore, captured antibody, FcgR analyte; GpH7-A5/GpH7-B3/GpL16-k0 = 100
[3] = biological target: T2, FcγRIIb, extracellular domain with C-terminal His tag (human, UniProt P31994 43-217); experiment: as above
T2 construct: extracellular domain; Expressed in FreeStyle293 cells; analyte in the Biacore assay; also called FcgRIIb; 2b; not shown: His tag at the C terminus
T2 sequence (looked up): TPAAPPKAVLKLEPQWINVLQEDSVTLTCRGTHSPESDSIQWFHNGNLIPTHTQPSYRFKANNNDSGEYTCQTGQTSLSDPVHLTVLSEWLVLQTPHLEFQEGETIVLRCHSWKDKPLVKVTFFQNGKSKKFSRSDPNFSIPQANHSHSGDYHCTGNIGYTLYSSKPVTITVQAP

[4] = biological target: T3, FcγRIIa H (human, UniProt P12318 34-217); experiment: SPR (Biacore), antibody captured, FcγR as analyte; relative to HeCon Ab
T3 construct: extracellular domain; Soluble extracellular domain with C-terminal His tag, expressed in FreeStyle293 cells; also called FcgRIIa H; 2aH; not shown: C-terminal His tag
T3 sequence (looked up): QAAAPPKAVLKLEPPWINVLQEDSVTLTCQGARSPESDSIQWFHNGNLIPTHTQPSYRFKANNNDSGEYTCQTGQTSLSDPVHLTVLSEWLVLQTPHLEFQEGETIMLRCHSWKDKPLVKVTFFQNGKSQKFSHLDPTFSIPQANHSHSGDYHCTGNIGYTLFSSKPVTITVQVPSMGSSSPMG
Method: (§1) The heterodimerized antibodies He Abs in which one of the H chains was introduced with an alteration were assayed for their binding activities to each activating FcγR and inhibitory FcγR according to the method described in Example 4. […] The activating FcγRs in FIGS. 26, 27, 28, and 29 are FcγRIa, FcγRIIa (R), FcγRIIa (H), and FcγRIIIa, respectively.
(§2) Analysis of interaction between objective antibody and the FcγR was carried out using Biacore T100 (GE Healthcare). HBS-EP+ (GE Healthcare) was used as the running buffer, and the measurement temperature was set to 25° C. Chips produced by immobilizing the antigen peptide by the amine coupling method to a Series S Sencor Chip CM5 (GE Healthcare), or alternatively, chips produced by allowing preliminarily biotinylated antigen peptides to interact with and immobilize onto a Series S Sensor Chip SA (certified) (GE Healthcare) were used. Antibodies of interest were captured onto an antigen peptide-immobilized chip, and allowed to interact to each FcγR diluted with running buffer. To regenerate and repeatedly use the chip, the antibodies captured on the chip were washed off by reacting 10 mM glycine-HCl, pH 1.5.

[5] = biological target: T4, FcγRIIb (human, UniProt P31994 43-217); experiment: as above
T4 construct: extracellular domain; Soluble extracellular domain with C-terminal His tag, expressed in FreeStyle293 cells; also called FcgRIIb; 2b; not shown: C-terminal His tag
T4 sequence (looked up): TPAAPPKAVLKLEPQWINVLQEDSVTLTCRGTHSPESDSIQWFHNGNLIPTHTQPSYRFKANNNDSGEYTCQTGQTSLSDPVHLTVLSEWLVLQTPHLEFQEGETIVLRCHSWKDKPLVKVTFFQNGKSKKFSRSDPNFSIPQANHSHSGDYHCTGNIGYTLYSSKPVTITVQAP
Method: as §1, §2

B1: GpH7-A5/GpH7-B3 variant S324_12R/GpL16-k0 (antibody, human IgG1, kappa)
heavy 1: not shown
heavy 2: not shown
light: DIVMTQSPLSLPVTPGEPASISCQASESLVHSNRNTYLHWYLQKPGQSPQLLIYKVSNRFSGVPDRFSGSGSGTDFTLKISRVEAEDVGVYYCSQNTHVPPTFGQGTKVEIERTVAAPSVFIFPPSDEQLKSGTASVVCLLNNFYPREAKVQWKVDNALQSGNSQESVTEQDSKDSTYSLSSTLTLSKADYEKHKVYACEVTHQGLSSPVTKSFNRGEC
notes: He Ab; IgG1; mutation in one H chain only; also called He Ab
[1]
  He_2aH/2b (IIaH/IIb): 1.53
[2]
  He/Con_2aH: 96.5 % of HeCon Ab
[3]
  He/Con_2b: 63.1 % of HeCon Ab

B2: GpH7-A5/GpH7-B3 variant P238_03V/GpL16-k0 (antibody, human IgG1, kappa)
heavy 1: not shown
heavy 2: not shown
light: DIVMTQSPLSLPVTPGEPASISCQASESLVHSNRNTYLHWYLQKPGQSPQLLIYKVSNRFSGVPDRFSGSGSGTDFTLKISRVEAEDVGVYYCSQNTHVPPTFGQGTKVEIERTVAAPSVFIFPPSDEQLKSGTASVVCLLNNFYPREAKVQWKVDNALQSGNSQESVTEQDSKDSTYSLSSTLTLSKADYEKHKVYACEVTHQGLSSPVTKSFNRGEC
notes: Heterodimerized anti-glypican-3 IgG1; alteration in the GpH7-B3 chain only; also called He Ab
[4]
  He/Con_2aH: 89 % of GpH7-A5/GpH7-B3/GpL16-k0 (=100)
[5]
  He/Con_2b: 120 % of GpH7-A5/GpH7-B3/GpL16-k0 (=100)

B3: GpH7-A5/GpH7-B3 variant S324_16H/GpL16-k0 (antibody, human IgG1, kappa)
heavy 1: not shown
heavy 2: not shown
light: DIVMTQSPLSLPVTPGEPASISCQASESLVHSNRNTYLHWYLQKPGQSPQLLIYKVSNRFSGVPDRFSGSGSGTDFTLKISRVEAEDVGVYYCSQNTHVPPTFGQGTKVEIERTVAAPSVFIFPPSDEQLKSGTASVVCLLNNFYPREAKVQWKVDNALQSGNSQESVTEQDSKDSTYSLSSTLTLSKADYEKHKVYACEVTHQGLSSPVTKSFNRGEC
notes: as for B1
[1]
  He_2aH/2b (IIaH/IIb): 1.22
[2]
  He/Con_2aH: 102 % of HeCon Ab
[3]
  He/Con_2b: 83.5 % of HeCon Ab

B4: GpH7-A5/GpH7-B3 variant Y300_12R/GpL16-k0 (antibody, human IgG1, kappa)
heavy 1: not shown
heavy 2: not shown
light: DIVMTQSPLSLPVTPGEPASISCQASESLVHSNRNTYLHWYLQKPGQSPQLLIYKVSNRFSGVPDRFSGSGSGTDFTLKISRVEAEDVGVYYCSQNTHVPPTFGQGTKVEIERTVAAPSVFIFPPSDEQLKSGTASVVCLLNNFYPREAKVQWKVDNALQSGNSQESVTEQDSKDSTYSLSSTLTLSKADYEKHKVYACEVTHQGLSSPVTKSFNRGEC
notes: as for B1
[1]
  He_2aH/2b (IIaH/IIb): 1.34
[2]
  He/Con_2aH: 55.4 % of HeCon Ab
[3]
  He/Con_2b: 41.2 % of HeCon Ab

B5: GpH7-A5/GpH7-B3 variant G237_06M/GpL16-k0 (antibody, human IgG1, kappa)
heavy 1: not shown
heavy 2: not shown
light: DIVMTQSPLSLPVTPGEPASISCQASESLVHSNRNTYLHWYLQKPGQSPQLLIYKVSNRFSGVPDRFSGSGSGTDFTLKISRVEAEDVGVYYCSQNTHVPPTFGQGTKVEIERTVAAPSVFIFPPSDEQLKSGTASVVCLLNNFYPREAKVQWKVDNALQSGNSQESVTEQDSKDSTYSLSSTLTLSKADYEKHKVYACEVTHQGLSSPVTKSFNRGEC
notes: as for B2
[4]
  He/Con_2aH: 17.8 % of GpH7-A5/GpH7-B3/GpL16-k0 (=100)
[5]
  He/Con_2b: 130 % of GpH7-A5/GpH7-B3/GpL16-k0 (=100)

B6: GpH7-A5/GpH7-B3 variant G237_16H/GpL16-k0 (antibody, human IgG1, kappa)
heavy 1: not shown
heavy 2: not shown
light: DIVMTQSPLSLPVTPGEPASISCQASESLVHSNRNTYLHWYLQKPGQSPQLLIYKVSNRFSGVPDRFSGSGSGTDFTLKISRVEAEDVGVYYCSQNTHVPPTFGQGTKVEIERTVAAPSVFIFPPSDEQLKSGTASVVCLLNNFYPREAKVQWKVDNALQSGNSQESVTEQDSKDSTYSLSSTLTLSKADYEKHKVYACEVTHQGLSSPVTKSFNRGEC
notes: as for B2
[4]
  He/Con_2aH: 16.4 % of GpH7-A5/GpH7-B3/GpL16-k0 (=100)
[5]
  He/Con_2b: 55.2 % of GpH7-A5/GpH7-B3/GpL16-k0 (=100)

B7: GpH7-A5/GpH7-B3 variant G237_08L/GpL16-k0 (antibody, human IgG1, kappa)
heavy 1: not shown
heavy 2: not shown
light: DIVMTQSPLSLPVTPGEPASISCQASESLVHSNRNTYLHWYLQKPGQSPQLLIYKVSNRFSGVPDRFSGSGSGTDFTLKISRVEAEDVGVYYCSQNTHVPPTFGQGTKVEIERTVAAPSVFIFPPSDEQLKSGTASVVCLLNNFYPREAKVQWKVDNALQSGNSQESVTEQDSKDSTYSLSSTLTLSKADYEKHKVYACEVTHQGLSSPVTKSFNRGEC
notes: as for B2
[4]
  He/Con_2aH: 13.9 % of GpH7-A5/GpH7-B3/GpL16-k0 (=100)
[5]
  He/Con_2b: 148 % of GpH7-A5/GpH7-B3/GpL16-k0 (=100)

B8: GpH7-A5/GpH7-B3 variant G237_10E/GpL16-k0 (antibody, human IgG1, kappa)
heavy 1: not shown
heavy 2: not shown
light: DIVMTQSPLSLPVTPGEPASISCQASESLVHSNRNTYLHWYLQKPGQSPQLLIYKVSNRFSGVPDRFSGSGSGTDFTLKISRVEAEDVGVYYCSQNTHVPPTFGQGTKVEIERTVAAPSVFIFPPSDEQLKSGTASVVCLLNNFYPREAKVQWKVDNALQSGNSQESVTEQDSKDSTYSLSSTLTLSKADYEKHKVYACEVTHQGLSSPVTKSFNRGEC
notes: as for B2
[4]
  He/Con_2aH: 15.1 % of GpH7-A5/GpH7-B3/GpL16-k0 (=100)
[5]
  He/Con_2b: 114 % of GpH7-A5/GpH7-B3/GpL16-k0 (=100)

Reference: patent publication US20180155451A1 (published 2018)
